Source: article PMC12216489, “Deep mutational scanning identifies Cas1 and Cas2 variants that enhance type II-A CRISPR-Cas spacer acquisition” (Nature Communications, 2025)
Where a chain is given by its changes, count along the chain named. In names and notes the source's numbering stands.

T1: Streptococcus pyogenes Cas1 R5K (S. pyogenes, UniProt Q99ZW1 1-289, R5K)
T1 construct: Cas1 of the Streptococcus pyogenes SF370 type II-A CRISPR-Cas locus with R5K; One of the plasmids pRAH246, pRAH248 or pRAH249; which plasmid holds which variant is in Supplementary Data 2; source: E. coli Rosetta 2(DE3) BL21, purified (Ni-NTA, SUMO protease, HiTrap Heparin, Superdex 200)
T1 sequence (looked up): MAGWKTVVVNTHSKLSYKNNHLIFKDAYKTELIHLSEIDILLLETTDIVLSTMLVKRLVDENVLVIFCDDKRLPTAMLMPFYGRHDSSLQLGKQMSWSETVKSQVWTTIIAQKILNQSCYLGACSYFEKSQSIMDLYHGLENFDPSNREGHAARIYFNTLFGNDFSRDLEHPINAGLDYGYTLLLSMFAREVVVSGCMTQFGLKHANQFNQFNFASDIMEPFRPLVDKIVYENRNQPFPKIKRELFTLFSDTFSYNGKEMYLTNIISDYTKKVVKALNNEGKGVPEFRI

T2: Streptococcus pyogenes Cas1 (S. pyogenes, UniProt Q99ZW1 1-289)
T2 construct: Cas1 of the Streptococcus pyogenes SF370 type II-A CRISPR-Cas locus; One of the plasmids pRAH246, pRAH248 or pRAH249; which plasmid holds which variant is in Supplementary Data 2; Fractions with cleaved Cas1 were pooled after SUMO protease digestion; also called wild-type Cas1; source: E. coli Rosetta 2(DE3) BL21, purified (Ni-NTA, SUMO protease, HiTrap Heparin, Superdex 200)
T2 sequence (looked up): T1 sequence (looked up) with K5R

T3: Streptococcus pyogenes Cas1 R5A (S. pyogenes, UniProt Q99ZW1 1-289, R5A)
T3 construct: Cas1 of the Streptococcus pyogenes SF370 type II-A CRISPR-Cas locus with R5A; One of the plasmids pRAH246, pRAH248 or pRAH249; which plasmid holds which variant is in Supplementary Data 2; source: E. coli Rosetta 2(DE3) BL21, purified (Ni-NTA, SUMO protease, HiTrap Heparin, Superdex 200)
T3 sequence (looked up): T1 sequence (looked up) with K5A

B1: Streptococcus pyogenes Cas2 (natural protein, S. pyogenes, UniProt Q99ZW0 1-113, looked up)
chain: MSYRYMRMILMFDMPTDTAEERKAYRKFRKFLLSEGFIMHQFSIYSKLLLNNTANNAMIGRLREHNPNKGNITLLTVTEKQFARMIYLHGERNNCIANSDERLVFLGEAFDES
notes: Cas2 of the Streptococcus pyogenes SF370 type II-A CRISPR-Cas locus; One of the plasmids pRAH247, pRAH272 or pRAH273; which plasmid holds which variant is in Supplementary Data 2; Same protocol as for Cas1; also called wild-type Cas2; source: E. coli Rosetta 2(DE3) BL21, purified (Ni-NTA, SUMO protease, HiTrap Heparin, Superdex 200)
B2: Streptococcus pyogenes Cas2 Y5A (natural protein, S. pyogenes, UniProt Q99ZW0 1-113, looked up)
chain: B1 chain with Y5A
notes: Cas2 of the Streptococcus pyogenes SF370 type II-A CRISPR-Cas locus with Y5A; One of the plasmids pRAH247, pRAH272 or pRAH273; which plasmid holds which variant is in Supplementary Data 2; source: E. coli Rosetta 2(DE3) BL21, purified (Ni-NTA, SUMO protease, HiTrap Heparin, Superdex 200)
B3: Streptococcus pyogenes Cas2 Y5F (natural protein, S. pyogenes, UniProt Q99ZW0 1-113, looked up)
chain: B1 chain with Y5F
notes: Cas2 of the Streptococcus pyogenes SF370 type II-A CRISPR-Cas locus with Y5F; One of the plasmids pRAH247, pRAH272 or pRAH273; which plasmid holds which variant is in Supplementary Data 2; source: E. coli Rosetta 2(DE3) BL21, purified (Ni-NTA, SUMO protease, HiTrap Heparin, Superdex 200)

Columns and labels:
Experiment in all cases: SEC; analytical SEC on Superdex 200 Increase 10/300 GL in SEC buffer (20 mM HEPES pH 7.5, 500 mM NaCl, 5% v/v glycerol, 5 mM DTT) at 4 °C; Cas1 variants (15-100 μM, 2 equiv.) mixed with Cas2 variants (1 equiv.), incubated at 4 °C for 1 h before injection; fractions analysed by SDS-PAGE
Details in all cases: both partners purified
[1] = target: T1, Streptococcus pyogenes Cas1 R5K
[2] = target: T2, Streptococcus pyogenes Cas1
[3] = target: T3, Streptococcus pyogenes Cas1 R5A

Row | Binder | binding result [1] | binding result [2] | binding result [3]
1 | B1 | binds | binds | binds
2 | B2 |  | binds | 
3 | B3 |  | binds | 
